From patent US20250296992A1 (Genmab, published 2025)

B1: phA290 (antibody, V domains shown)
VH: QVQLVQSGAEVKKPGASVKVSCKASGYTFTSYYMHWVRQAPGQGLEWMGIINPSGGSTSYAQKFQGRVTMTRDTSTSTVYMELSSLRSEDTAVYYCARGFTRYFDYWGQGTLVTVSA
VL: EIVMTQSPGTLSLSPGERATLSCRASQSVSKYLAWYQQRPGQAPRLLIYDASNRATGIPARFSGSGSGTDFTLTVSSLEPEDFAVYYCQQRYNWPLTFGGGTTVEIK
notes: From phage display, then full-length construction; Only the variable regions are tied to the name
B2: phA108 (antibody, V domains shown)
VH: QVQLVQSGAEVKKPGASVKVSCTASGYIFNDYYLHWVRQAPGQGLEWVGIINPSGGSPVYAQKFQGRVTMTRDTSTNTVYMELSSLRSEDTAVYYCARGMVRGVRLFDYWGQGTLVTVSA
VL: EIVLTQSPATLSLSPGERATLSCRASQSVSSYLAWYQQKPGQTPRLLIYDASNRATGVPARFSGSGSGTDFTLTISSLETEDFAVYYCQQRTNWPLTFGGGTKVEIK
notes: as for B1
B3: Sirtratumab (antibody, V domains shown)
VH: QVQLVESGGGVVQPGRSLRLSCAASGFTFSSYGMHWVRQAPGKGLEWVAVIWYDGSNQYYADSVKGRFTISRDNSKNTLFLQMHSLRAEDTAVYYCARGLTSGRYGMDWGQGTTVTVSS
VL: DIVMTQSPLSLPVTPGEPASISCRSSQSLLLSHGFNYLDWYLQKPGQSPQLLIYLGSSRASGVPDRFSGSGSGTDFTLKISRVEAEDVGLYYCMQPLQIPWTFGQGTKVEIK
notes: Prior-art benchmark antibody; also called Sirtratuzumab
B4: AGS15E (antibody, V domains shown)
VH: QVQLVESGGGVVQPGRSLRLSCAASGFTFSSYGMHWVRQAPGKGLEWVAVIWYDGSNQYYADSVKGRFTISRDNSKNTLFLQMHSLRAEDTAVYYCARGLTSGRYGMDWGQGTTVTVSS
VL: DIVMTQSPLSLPVTPGEPASISCRSSQSLLLSHGFNYLDWYLQKPGQSPQLLIYLGSSRASGVPDRFSGSGSGTDFTLKISRVEAEDVGLYYCMQPLQIPWTFGQGTKVEIK
modifications: drug conjugate; drug-linker and positions not given
notes: also called ADC of Sirtratumab

Experiments:
[1] = biological target: T1, human SLITRK6 extracellular domain linked to his tag (human, UniProt Q9H5Y7 27-608); experiment: ELISA, coated antigen
T1 construct: extracellular domain; also called huSLITRK6; Hu SLITRK6; not shown: his tag

[2] = biological target: T2, cynomolgus monkey SLITRK6 extracellular domain linked to his tag (cynomolgus monkey, UniProt G7PVK4 27-608); experiment: ELISA, coated antigen
T2 construct: extracellular domain; also called cynoSLITRK6; Cyno SLITRK6; not shown: his tag

rat SLITRK6 [3] = biological target: T3, rat SLITRK6 (rat, UniProt D3ZP44 27-607); experiment: ELISA, coated antigen
T3 construct: extracellular domain; not shown: his tag

human SLITRK6 on cells [4] = biological target: T4, human SLITRK6 on cells (human, UniProt Q9H5Y7 27-841); experiment: flow cytometry on RT4 cells
T4 construct: whole, on cells
Protocol: (§1) The binding activity of mAbs was evaluated by flow cytometer (Beckman, Cytoflex). Specifically, cells were incubated with 50 μL of mAbs or ADCs in series dilutions in PBS containing 1% BSA at 4° C. for 30 minutes. The cells were washed twice with PBS containing 1% BSA, stained with PE-conjugated anti human Fc in PBS containing 1% BSA and then incubated at 4° C. for 20 min. After that the cells were washed twice with PBS and analyzed by a flow cytometer.

human SLITRK6 on cells [5] = biological target: T4, human SLITRK6 on cells; experiment: flow cytometry on RT4 cells; remark: listed apart in the source
Protocol: (§2) The binding activity of mAbs and ADCs was evaluated by flow cytometer (Beckman, Cytoflex). Specifically, cells were incubated with 50 μL of mAbs or ADCs in series dilutions in PBS containing 1% BSA at 4° C. for 30 min. The cells were washed twice with PBS containing 1% BSA, stained with PE-conjugated anti human Fc in PBS containing 1% BSA and then incubated at 4° C. for 20 min. After that the cells were washed twice with PBS and analyzed by a flow cytometer.

human SLITRK6 on cells [6] = biological target: T4, human SLITRK6 on cells; experiment: flow cytometry on SCC-4 cells
Protocol: as §1

human SLITRK6 on cells [7] = biological target: T4, human SLITRK6 on cells; experiment: flow cytometry on SW780 cells
Protocol: as §1

human SLITRK6 on cells [8] = biological target: T4, human SLITRK6 on cells; experiment: flow cytometry on SW780 cells; remark: listed apart in the source
Protocol: as §2

human SLITRK6 on cells [9] = biological target: T4, human SLITRK6 on cells; experiment: flow cytometry on CHP-212 cells
Protocol: as §1

human SLITRK6 on cells [10] = biological target: T4, human SLITRK6 on cells; experiment: flow cytometry on CHP-212 cells; remark: listed apart in the source
Protocol: as §2

human SLITRK6 on cells [11] = biological target: T4, human SLITRK6 on cells; experiment: flow cytometry on RT112/84 cells
Protocol: as §1

human SLITRK6 on cells [12] = biological target: T4, human SLITRK6 on cells; experiment: flow cytometry on 293F-SLITRK6-C9 cells
Protocol: as §2

human SLITRK6 on cells [13] = biological target: T4, human SLITRK6 on cells; experiment: flow cytometry on 293F-huSLITRK6-C9 cells
Protocol: The binding activity of mAbs was evaluated by flow cytometer (Beckman, Cytoflex). Specifically, cells were incubated with 50 μL of mAbs or ADCs in series dilutions in PBS containing 1% BSA at 4° C. for 30 min. The cells were washed twice with PBS containing 1% BSA, stained with PE-conjugated anti human Fc in PBS containing 1% BSA and then incubated at 4° C. for 20 min. After that the cells were washed twice with PBS and analyzed by a flow cytometer.

[14] = biological target: T1, human SLITRK6 extracellular domain …; experiment: BLI; antigen ECD-his on anti-his tips, antibody as analyte; 1:1 fit;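 further: antibody at several concentrations, 180 s association then 300 s dissociation in Tris buffer at pH 6 or 7.5, rate constants from global fitting, KD computed as koff/kon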
Protocol: (§3) Binding kinetic of antibody-antigen was characterized by the bio-layer interferometry (BLI). 100 nM of SLITRK6′ extracellular domain linked to his tag was immobilized on anti-his biosensor tips (Fortebio). The sensors were rinsed with the buffer (50 mM Tris-AcOH, pH 6 or 7.5, 0.05% v/v surfactant P20) for 10 min to remove the unbound molecules, then dipped in the antibody solutions at different concentrations for 180 seconds and interspersed by a rinsing step in the buffer solution for 300 seconds. Binding affinity was calculated using ForteBio Data Acquisition 6.3 software (ForteBio) and was derived by fitting the kinetic data to a 1:1 Langmuir binding model utilizing global fitting algorithms. The dissociation or association equilibrium constant KD was calculated from the binding rate constants as KD=koff/kₒₙ(where koff and kₒₙ represent the dissociation kinetic constant and the association kinetic constant, respectively).

[15] = biological target: T2, cynomolgus monkey SLITRK6 extracellular …; experiment: as above
Protocol: as §3

[16] = biological target: T1, human SLITRK6 extracellular domain …; experiment: BLI binning on huSLITRK6-his; Ab1 = row antibody first, then Ab2 (competitor) = phA108
Protocol: (§4) Epitope binning was characterized by the bio-layer interferometry (BLI). 100 nM of human SLITRK6′ extracellular domain linked to his tag was immobilized on anti-his biosensor tips (Fortebio). The sensors were rinsed with the buffer (50 mM Tris-AcOH, pH 6 or 7.5, 0.05% v/v surfactant P20) for 30 seconds to remove the unbound molecules, then dipped in the 100 nM of antibody 1 solutions for 180 seconds and interspersed by a rinsing step in the buffer solution for 300 seconds. After that, the sensors were dipped in the 100 nM of antibody 2 solutions. The epitope cluster was calculated using ForteBio Data Acquisition 6.3 software.

[17] = biological target: T1, human SLITRK6 extracellular domain …; experiment: BLI binning on huSLITRK6-his; Ab1 = row antibody first, then Ab2 (competitor) = phA290
Protocol: as §4

[18] = biological target: T1, human SLITRK6 extracellular domain …; experiment: BLI binning on huSLITRK6-his; Ab1 = row antibody first, then Ab2 (competitor) = hu1H2-03
Protocol: as §4

[19] = biological target: T1, human SLITRK6 extracellular domain …; experiment: BLI binning on huSLITRK6-his; Ab1 = row antibody first, then Ab2 (competitor) = hu1H2-13
Protocol: as §4

[20] = biological target: T1, human SLITRK6 extracellular domain …; experiment: BLI binning on huSLITRK6-his; Ab1 = row antibody first, then Ab2 (competitor) = hu14G1-03
Protocol: as §4

[21] = biological target: T1, human SLITRK6 extracellular domain …; experiment: BLI binning on huSLITRK6-his; Ab1 = row antibody first, then Ab2 (competitor) = Sirtratumab
Protocol: as §4

human SLITRK6 on cells [22] = biological target: T4, human SLITRK6 on cells; experiment: flow cytometry on RT4 cells, PE-conjugated anti-human Fc
Protocol: (§5) Specifically, cells were incubated with 50 μL of mAbs or ADCs in series dilutions in PBS containing 1% BSA at 4° C. for 30 min. The cells were washed twice with PBS containing 1% BSA, stained with PE-conjugated anti human Fc in PBS containing 1% BSA and then incubated at 4° C. for 20 min. After that the cells were washed twice with PBS and analyzed by a flow cytometer.

human SLITRK6 on cells [23] = biological target: T4, human SLITRK6 on cells; experiment: as above; remark: listed apart in the source
Protocol: as §2

human SLITRK6 on cells [24] = biological target: T4, human SLITRK6 on cells; experiment: flow cytometry on SW780 cells, PE-conjugated anti-human Fc
Protocol: as §5

human SLITRK6 on cells [25] = biological target: T4, human SLITRK6 on cells; experiment: as above; remark: listed apart in the source
Protocol: as §2

human SLITRK6 on cells [26] = biological target: T4, human SLITRK6 on cells; experiment: flow cytometry on CHP-212 cells, PE-conjugated anti-human Fc
Protocol: as §5

mouse SLITRK6 = biological target: T5, mouse SLITRK6 (mouse, UniProt Q8C110 23-609); experiment: BLI; antigen-his on anti-his tips, antibody or ADC as analyte; 1:1 fit
T5 construct: extracellular domain; also called Mu SLITRK6; not shown: his tag
T5 sequence (Q8C110 23-609): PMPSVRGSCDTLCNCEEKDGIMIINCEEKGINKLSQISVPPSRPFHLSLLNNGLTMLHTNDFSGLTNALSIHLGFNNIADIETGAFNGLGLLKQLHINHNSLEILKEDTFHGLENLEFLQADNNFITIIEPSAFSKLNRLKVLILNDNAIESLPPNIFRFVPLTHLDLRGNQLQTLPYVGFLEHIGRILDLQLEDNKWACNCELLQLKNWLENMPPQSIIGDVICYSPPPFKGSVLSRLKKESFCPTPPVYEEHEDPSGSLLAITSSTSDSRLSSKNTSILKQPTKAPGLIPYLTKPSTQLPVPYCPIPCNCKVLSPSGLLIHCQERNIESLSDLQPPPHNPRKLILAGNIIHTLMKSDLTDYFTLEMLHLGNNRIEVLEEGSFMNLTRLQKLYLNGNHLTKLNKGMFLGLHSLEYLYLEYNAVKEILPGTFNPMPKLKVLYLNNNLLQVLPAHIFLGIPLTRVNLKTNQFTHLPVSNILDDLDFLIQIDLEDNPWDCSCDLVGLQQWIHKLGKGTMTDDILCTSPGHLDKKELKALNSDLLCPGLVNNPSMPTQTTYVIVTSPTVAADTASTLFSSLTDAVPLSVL

[27] = biological target: T1, human SLITRK6 extracellular domain …; experiment: as above
Protocol: (§6) Binding kinetic of antibody-antigen was characterized by the bio-layer interferometry (BLI). 100 nM of SLITRK6′ extracellular domain linked to his tag was immobilized on anti-his biosensor tips (Fortebio). The sensors were rinsed with the buffer (50 mM Tris-AcOH, pH 6 or 7.5, 0.05% v/v surfactant P20) for 10 min to remove the unbound molecules, then dipped in the antibody solutions at different concentrations for 180 seconds and interspersed by a rinsing step in the buffer solution for 300 seconds. Binding affinity was calculated using ForteBio Data Acquisition 6.3 software (ForteBio) and was derived by fitting the kinetic data to a 1:1 Langmuir binding model utilizing global fitting algorithms. The dissociation or association equilibrium constant KD was calculated from the binding rate constants as KD=koff/kₒₙ (where koff and kₒₙ represent the dissociation kinetic constant and the association kinetic constant, respectively).

[28] = biological target: T2, cynomolgus monkey SLITRK6 extracellular …; experiment: as above
Protocol: as §6

rat SLITRK6 [29] = biological target: T3, rat SLITRK6; experiment: as above
Protocol: as §6

human SLITRK6 on cells [30] = biological target: T4, human SLITRK6 on cells; experiment: flow cytometry on 293F-huSLITRK6 cells, PE-conjugated anti-human Fc
Protocol: as §5

human SLITRK6 on cells [31] = biological target: T4, human SLITRK6 on cells; experiment: flow cytometry on KYSE-30 cells, PE-conjugated anti-human Fc
Protocol: as §5

Binder	EC50 [1]	EC50 [2]	EC50 (rat SLITRK6 [3])	EC50 (human SLITRK6 on cells [4])	EC50 (human SLITRK6 on cells [5])	EC50 (human SLITRK6 on cells [6])	EC50 (human SLITRK6 on cells [7])	EC50 (human SLITRK6 on cells [8])	EC50 (human SLITRK6 on cells [9])	EC50 (human SLITRK6 on cells [10])	EC50 (human SLITRK6 on cells [11])	EC50 (human SLITRK6 on cells [12])	EC50 (human SLITRK6 on cells [13])	Kd [14]	Kd [15]	koff [14]	kon [14]	koff [15]	kon [15]	epitope binning signal [16]	further results
B1	0.09 nM	0.06 nM	0.18 nM	0.14 nM	0.14 nM	0.15 nM	0.27 nM	0.27 nM	0.14 nM	0.16 nM	0.08 nM	1.16 nM	1.16 nM	1.06 nM	3.14 nM						
B2	0.05 nM	0.06 nM	0.29 nM	0.1 nM	0.12 nM	0.18 nM	0.27 nM	0.27 nM	0.14 nM	0.14 nM	0.1 nM	0.87 nM	0.87 nM	1.05 nM	4.69 nM	0.000969 s⁻¹	924000 M⁻¹ s⁻¹	0.00379 s⁻¹	809000 M⁻¹ s⁻¹	0.0346	epitope binning signal [17]: 0.0375; epitope binning signal [18]: 0.292; epitope binning signal [19]: 0.285; epitope binning signal [20]: 0.274; epitope binning signal [21]: 0.276
B3	0.06 nM	0.06 nM	0.88 nM	0.2 nM	0.26 nM		0.33 nM	0.39 nM	0.21 nM	0.25 nM	0.2 nM	1.41 nM	1.41 nM	5 nM	6.01 nM	0.00416 s⁻¹	831000 M⁻¹ s⁻¹	0.0037 s⁻¹	615000 M⁻¹ s⁻¹	0.252	EC50 (read off the curve) (human SLITRK6 on cells [22]): ~0.2 nM; EC50 (read off the curve) (human SLITRK6 on cells [23]): ~0.3 nM; EC50 (read off the curve) (human SLITRK6 on cells [24]): ~0.2 nM; EC50 (read off the curve) (human SLITRK6 on cells [25]): ~0.3 nM; EC50 (read off the curve) (human SLITRK6 on cells [26]): ~0.1 nM; Kd (mouse SLITRK6): 3.5 nM; Kd [27]: 0.35 nM; Kd [28]: 1.2 nM; Kd (rat SLITRK6 [29]): 1.5 nM; EC50 (read off the curve) (human SLITRK6 on cells [30]): ~1 nM; epitope binning signal [17]: 0.256; epitope binning signal [18]: 0.281; epitope binning signal [19]: 0.282; epitope binning signal [20]: 0.244; epitope binning signal [21]: 0.0645
B4																					EC50 (read off the curve) (human SLITRK6 on cells [22]): ~0.3 nM; EC50 (read off the curve) (human SLITRK6 on cells [23]): ~0.3 nM; EC50 (read off the curve) (human SLITRK6 on cells [24]): ~0.3 nM; EC50 (read off the curve) (human SLITRK6 on cells [25]): ~0.2 nM; EC50 (read off the curve) (human SLITRK6 on cells [26]): ~0.2 nM; EC50 (read off the curve) (human SLITRK6 on cells [31]): ~0.5 nM; Kd (mouse SLITRK6): 1.9 nM; Kd [27]: 0.3 nM; Kd [28]: 0.87 nM; Kd (rat SLITRK6 [29]): 1.2 nM; EC50 (read off the curve) (human SLITRK6 on cells [30]): ~1 nM
